Here are results for five substances from patent publication US20200264182A1, “METHOD FOR DETECTING PROSTATE CANCER” (J-OIL MILLS, INC., priority 2017, published 2020).

The target in assay [1] is serum fucosylated PSA (prostate specific antigen) (human) (UniProt P07288). Nature of the assay: sandwich ELISA, anti-PSA antibody capture, biotin-lectin detection, lectin reaction pH 7.4; serum of Healthy 1. For orientation: In an ELISA, binding on a coated surface is turned into a signal by an enzyme label.
For assay [2] the target is unchanged. The assay can be described thus: sandwich ELISA, anti-PSA antibody capture, biotin-lectin detection, lectin reaction pH 7.4; serum of Prostate cancer 4.
Assay [3] shares this target. Nature of the assay: sandwich ELISA, anti-PSA antibody capture, biotin-lectin detection, lectin reaction pH 9.6; serum of Prostate cancer 4.
Assay [4] has the same target. The assay can be described thus: sandwich ELISA, anti-PSA antibody capture, biotin-lectin detection, pH 7.4; serum of Healthy 1.
The target is the same in assay [5]. Nature of the assay: sandwich ELISA, anti-PSA antibody capture, biotin-lectin detection, pH 7.4; serum of Healthy 2.
For assay [6] the target is unchanged. The assay can be described thus: sandwich ELISA, anti-PSA antibody capture, biotin-lectin detection, pH 7.4; serum of Healthy 3.
The target is the same in assay [7]. Nature of the assay: sandwich ELISA, anti-PSA antibody capture, biotin-lectin detection, pH 7.4; serum of Healthy 4.
Assay [8] has the same target. Nature of the assay: sandwich ELISA, anti-PSA antibody capture, biotin-lectin detection, pH 7.4; serum of Healthy 5.
Assay [9] shares this target. Nature of the assay: sandwich ELISA, anti-PSA antibody capture, biotin-lectin detection, pH 7.4; serum of Healthy 6.
The target is the same in assay [10]. Nature of the assay: sandwich ELISA, anti-PSA antibody capture, biotin-lectin detection, pH 7.4; serum of Healthy 7.
The target is the same in assay [11]. Nature of the assay: sandwich ELISA, anti-PSA antibody capture, biotin-lectin detection, pH 7.4; sera of subgroup GS6, n=2.
For assay [12] the target is unchanged. The assay can be described thus: sandwich ELISA, anti-PSA antibody capture, biotin-lectin detection, pH 7.4; sera of subgroup GS7, n=2.
For assay [13] the target is unchanged. Nature of the assay: sandwich ELISA, anti-PSA antibody capture, biotin-lectin detection, pH 7.4; serum of Prostate cancer 1 (GS 4).
For assay [14] the target is unchanged. The assay can be described thus: sandwich ELISA, anti-PSA antibody capture, biotin-lectin detection, pH 7.4; serum of Prostate cancer 2 (GS 5).
For assay [15] the target is unchanged. The assay can be described thus: sandwich ELISA, anti-PSA antibody capture, biotin-lectin detection, pH 7.4; serum of Prostate cancer 3 (GS 6).
For assay [16] the target is unchanged. The assay can be described thus: sandwich ELISA, anti-PSA antibody capture, biotin-lectin detection, pH 7.4; serum of Prostate cancer 4 (GS 6).
For assay [17] the target is unchanged. Nature of the assay: sandwich ELISA, anti-PSA antibody capture, biotin-lectin detection, pH 7.4; serum of Prostate cancer 5 (GS 7).
Assay [18] has the same target. Nature of the assay: sandwich ELISA, anti-PSA antibody capture, biotin-lectin detection, pH 7.4; serum of Prostate cancer 6 (GS 7).
Assay [19] has the same target. Nature of the assay: sandwich ELISA, anti-PSA antibody capture, biotin-lectin detection, pH 7.4; serum of Prostate cancer 7 (GS 8).
Assay [20] has the same target. Nature of the assay: sandwich ELISA, anti-PSA antibody capture, biotin-lectin detection, pH 7.4; serum of Prostate cancer 8 (GS 8).
Assay [21] shares this target. Nature of the assay: sandwich ELISA, anti-PSA antibody capture, biotin-lectin detection, pH 7.4; serum of Prostate cancer 9 (GS 8).
Assay [22] shares this target. Nature of the assay: sandwich ELISA, anti-PSA antibody capture, biotin-lectin detection, pH 7.4; sera of subgroup GS8 or more, n=3.
The target is the same in assay [23]. The assay can be described thus: sandwich ELISA, anti-PSA antibody capture, biotin-lectin detection, pH 7.4; sera of the healthy person group (n=7).
Assay [24] shares this target. The assay can be described thus: sandwich ELISA, anti-PSA antibody capture, biotin-lectin detection, pH 7.4; sera of subgroup Negative (GS5 or less), n=2.
The target is the same in assay [25]. Nature of the assay: sandwich ELISA, anti-PSA antibody capture, biotin-lectin detection, pH 7.4; sera of the prostate cancer patient group (n=9).
The target is the same in assay [26]. Nature of the assay: sandwich ELISA, anti-PSA antibody capture, biotin-lectin detection, lectin reaction pH 9.6; serum of Healthy 1.

As for “Pholiota squarrosa lectin peptide (PhoSL peptide), biotin-labeled”, the PhoSL peptide reaction value in assay [1] came out at 1 U/mL; in assay [2] it was 102 U/mL; in assay [3], 234 U/mL.

For the substance “Aleuria aurantia lectin (AAL), biotin-labeled (from UniProt P18891 2-313)”, the AAL reaction value in [4] came to 1100 U/mL; in assay [5] it was 855 U/mL; in assay [6], 1060 U/mL; in assay [7] it was 115 U/mL; in assay [8] it was 32.3 U/mL; in [9], 1190 U/mL. For the same substance, the AAL reaction value in [10] stood at 1030 U/mL; in assay [13] it was 831 U/mL; in [14] it was 1030 U/mL; in assay [15], 1150 U/mL; in assay [16], 926 U/mL; in assay [17] it was 1020 U/mL. For the same substance, the AAL reaction value in assay [18] was 962 U/mL; in [19], 1210 U/mL; in assay [20], 1010 U/mL; in [21], 988 U/mL. Moreover, the AAL reaction value (mean value) came out at 1040 U/mL in [11], 993 U/mL in [12], 1070 U/mL in assay [22] and 932 U/mL in assay [24]. Further, the AAL reaction value (median value) in assay [11] came to 1040 U/mL; in assay [12], 993 U/mL; in assay [22], 1010 U/mL; in assay [23], 1030 U/mL; in [24] it was 932 U/mL; in assay [25], 1010 U/mL. Further, the AAL reaction value (average value) in assay [23] is 769 U/mL; in [25] it was 1020 U/mL.

With “Stropharia rugosoannulata lectin (SRL), biotin-labeled”, the SRL reaction value in assay [1] worked out at 20 U/mL; in assay [26] it was 16.8 U/mL; in assay [2], 146 U/mL; in assay [3], 234 U/mL.

Turning to “Amanita muscaria lectin (AML), biotin-labeled”, the AML reaction value amounted to 21.2 U/mL in assay [1], 141 U/mL in assay [2] and 151 U/mL in assay [3].

As for “Naematoloma sublateritium lectin (NSL), biotin-labeled”, the NSL reaction value in assay [1] worked out at 178 U/mL; in assay [26], 42.3 U/mL; in assay [2], 400 U/mL; in [3], 283 U/mL.
